# Test: yeast display, Sf9 membrane polyspecificity reagent, FACS + sequencing; frameworks hold sequencing errors
# Summary of the method: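 Nanobodies from a synthetic yeast display library (Saccharomyces cerevisiae BJ5465), induced 36–48 hours with galactose, were stained 1 hour at 4 °C with 10% biotinylated, detergent-solubilized Sf9 membrane reagent, enriched on streptavidin microbeads, then FACS-sorted. Anti-HA (expression) and streptavidin (reagent binding) fluorescence set low and high (top ~1%) gates. Polyreactivity labels come from the gate of origin. Genes were colony-PCR amplified, MiSeq 2 × 250 sequenced and filtered by CDR length.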
row,Sequence,polyreactivity (PSR sort gate)
1,QVQLVESGGGLDQAGGSLRLSCAASVNIFIYNTMGWYRQAPGKERELVAAITSDDSTKYADSVKGRFTISRDNAKNPVYLQMNTLKPEDTAVYYCAKRYYHPYWIDYDYWGQGTHVTVSS,low polyreactivity
2,QVQLVESGGGLDQAGGSLRLSCADSGITFSYYAMRWYRQAPGKERELVAAISSGGSKNYADSVKGRFTISRDNGKNTVYFQMNSLKPEDTEVYYCAATQQFWWAYRYDYWGQGTQVTVSS,low polyreactivity
3,QVQLVESGGGLDQAGGSLRLSCADSGSTFGLYAMGWYRQAPGKETELVAVISWRGGSTYYADSVKGRFTISRDNAKITVYFQMNSLKPEDTAVYYCAAYCLYPYVRYDYWGLGTQVTVSS,low polyreactivity
4,QVQLVESGGGLDQAGGSLRLSSAASGSIVDSNAMGWYRQAPGKASEMVASITSSGGSTYYADSVKGRFTISRDNAKNTVYLQMNSVKPEDTAVYYCAPKQAQSRYRLWSTSGYWGQGTQVTVSS,high polyreactivity
5,QVQLVESGGGLDQAGGSLRLSSAAYGRIFRRYAMGWYRQSHGKERELVAAITSGGGSTYYADSVKGRFTISRDNAKNTVYLQMNSLKPEETAVYYCNKSSLEFVKGKYGYWGQGTQVTVSS,low polyreactivity
6,QVQLVESGGGLDQAGGSLRLTCAASGFNFSYYVMGWYRQAPGKERELVAAITKSGGSTYYADSVKGRFTIARDNAKNTVYLQMYSLKPEDTAVYFLAAVRGYRCYDYWGQGTQVTVSS,high polyreactivity
7,QVQLVESGGGLDQAGGSLRLTCAASGGTFVSNAMRWSRQAPGKERELVAAISSSTGSTYYADSVKGRFTISRDNAKKTVYLQMISLKPEDTAVYYCAADSWWDYDSWGQGPQVTVSS,low polyreactivity
8,QVQLVESGGGLDQAGGSLRLTCAASGITFTQYAMGWYRQAPGKEREFVAGITFSGSSTYYADSVKGRFTISRDNAKNTVYLQMNSLKPEDTAVYYCAAESWYKYIYGYPRLFDYWGQATQVTVSS,low polyreactivity
9,QVQLVESGGGLDQARGSLRLSCAASGLTFHRYAMGWYRQANGKERELVAAINYSGGRTYYADSVKGRFTISRDNAKNTVYLQMNSLKPEDTAVYYCNAVRYQKIFDYWGQGTQVTVSS,high polyreactivity
10,QVQLVESGGGLDQARGSLRLSCAASGRTFVLNAMGWYRQAPGKERELVAAITLGGGSTYADSVKGRFTISRANAKNTVYLQMNSLKPEDTAVYYCAADFHYPYFEYWGQGTQVTVSS,low polyreactivity
11,QVQLVESGGGLDQEGGSLRLSCAASGRIFARNAMGWYRQAPGKERELVAAIRNSDGSTYYADSVKGRFTISRDNAKNTVYLQMNSLKPEDTAVYYCAARSGSYRKYGYWGQGTQVTLSS,high polyreactivity
12,QVQLVESGGGLDQPGGSLRLSCAASGRIFRTYAMGWYRQAPGKQRELVAAINSVHRTYYADSVKGRFTITRDNAKNTVNLQMYCQKPEDSAVYYCNARYVLKVSQYGYWGQGTQVTVSS,high polyreactivity
13,QVQLVESGGGLDQSGGSLSLSCAASGSNFRLNAMGWSRQAPGKETELVAAISYRGGSTNYADSVKGRFTISRDNAKNTVYLQMNILKPEDTAVYYCAANIYRSSGQCMDYWGQGTEVTVSS,low polyreactivity
14,QVQLVESGGGLEQAGGSLRISCAASGITFRWYAMGWYRQAPGKERELVAAISERGGSTYYADSVKGRFTISRDNAKNTVYLQMNSLKPEDTAVYYCAADSQHWQRWHGYWGQGTEVTVSS,high polyreactivity
15,QVQLVESGGGLEQAGGSLRLSCAASGGTFARYVMGWYRQAPGKERELVAAITSGGRTYYADSVKGRFTISRDNAKNTVYLQMNSLKPEDTAVYYCATAPRRRATSYYYWGQGTQVTVSS,high polyreactivity
16,QVQLVESGGGLFQAGGILRLSCAASGFTFERNDMGWYRQAPGKERELVATISQSGTNTYYADSVKGRFTISRDNAKNTVYVQMNSMKPEDTAVYYCNARYIFYRYDYWGHGTQVTVSS,low polyreactivity
17,QVQLVESGGGLFQAGGRLRLSCASSGYTFDYYTMAWYRQAPGKERELVARITASGGSTYYADSVKGRFTISRDNAKNTVYLQMNSLKPEDTAVYYCAADYWWYTGYDYWGQGTQVTVSS,high polyreactivity
18,QVQLVESGGGLFQAGGSLRISCAASGFIFSFYAMGWYRQAPGKERELVAAITSSGATTYYADSVKGSFTISRDNAKNTVYLQMNSLKPEDTAVYYCNAVYRRDTGYYRYYYWGQGTQVTVSS,high polyreactivity
19,QVQLVESGGGLFQAGGSLRISCAASGSIFRSYAMGWYRQAPGKERELVASISRRGGSTYYADSVKGRFTISRDNAKNTVYLQMNSLKPEDTAVYYCAAVRYNSRVSTTPSEMYYWGQGTQVTVSS,low polyreactivity
20,QVQLVESGGGLFQAGGSLRISCAASGSTFRGYVMGWYRQAPGKERELVAAISRSGTSTYYADSVKGRFTISRDNAKNTVYLQMNSLKPEDTAVYYCAAQLYGHGEDYWGQGTQVTVSS,high polyreactivity
21,QVQLVESGGGLFQAGGSLRLICAASGNIFKSYTMGWYRQAPGKERELVAAITSGGRTNYADSVKGRFTISRDNAKNTVYLQMNSLKPEDTAVYYCNAYKVFWVSIRYKFDYWGQGTQVTVSS,high polyreactivity
22,QVQLVESGGGLFQAGGSLRLICAASGSTFLNNAMGWYRQAPGKERELVAAISYRGGSTYYADSVKGRFTISRDNAKNTVYLQMNSLKPEDTAVYYCAAEVTRFWWRSPYDYNYWGQGTQVTVSS,high polyreactivity
23,QVQLVESGGGLFQAGGSLRLSCAASATTFGVNAMGLYRQATGKERELVAAITVSAGSTYYADSVKGRFTISRDNAQNTVYLQMNSMKPEDSAVYYCAAEEREWRTDIYDYWGQGTQVTVSS,low polyreactivity
24,QVQLVESGGGLFQAGGSLRLSCAASGFIFAWYAMGWSRQAPGKERELVATISSSGARTYYADSVKGRFTISRDNAKNTVYLQLNRLKPEDTAVYYCASVYSTLGVGYYYWGQGTQVTVSS,high polyreactivity
25,QVQLVESGGGLFQAGGSLRLSCAASGFIFRPYGMGWYRQAPGKERELVAAISWSGDRTYYADSVKGRFTISRDNAKNTVYLQMNSLKPEDTAVYYCAADGVTRDYDYWGQGNQVTVSS,low polyreactivity
26,QVQLVESGGGLFQAGGSLRLSCAASGFIFYDNAIGWYRQAPGKERELVASISVSGGSTYYADSVKGRFTISRDKAKNTVYLHMNSLKAEDTAVYYCAASYRDGHIRHDYWGQGTQVTVSS,low polyreactivity
27,QVQLVESGGGLFQAGGSLRLSCAASGFISSGNTMAWYRQAPGKERELVAAISGSGGRTYYADSVKGRFTISRDNAKNTVYLQMNSLKPEDTAVYYCATPLQQLYGYWGQGTQVTVSS,low polyreactivity
28,QVQLVESGGGLFQAGGSLRLSCAASGFIVRRYAMGWYRQAPGKEREMVAAITSGGGRTYYADSVKGRYTISRDNAKYTVNLEMISLKPEDTGVYDCARVQRCDYDYWGQGTQVTVSS,high polyreactivity
29,QVQLVESGGGLFQAGGSLRLSCAASGFTFPAYNMGWYRQAPRKEMEMVAAITSSGGNTYYADSVKGRFTISRHNAKNTVYLQMNSLKPEDTAVYYWATFSVRWPSNDHVRYDYWGHGTQVTVSS,low polyreactivity
30,QVQLVESGGGLFQAGGSLRLSCAASGIIFVRNAMGWSRQAPGKERELVAAITPSGGSTYYADSVKGRFTISRDNAKNTVYLQMNSLKPEDTAVYYCAAPYRYRSLYDNWGQGSQVTVSS,high polyreactivity
